Experimental data taken from the DeepSol protein solubility set.

Assay: soluble on expression in E. coli; label from the status in PepcDB or PDB records

Sequence | soluble on expression in E. coli
MSLLSYRHGFHAGNQADVFKHSALFSFLKVYTQKQKPFTAFDLNAGSASYNLLSEWSLKTGEAEEGIIRFLDLYKKEKLPLPIPEGFKAYLDFCLKNYDENSSYAGSPEIIRSFLQKESNLILCDLHSAEAEKLKELYKRVENVHVHKRDCYEAVRALTPPLPIRGFALFDPSYEVDSDYTAIAESVEKVCKKWPIGIFIIWYPILNHKTEECRNLKDRISKAMNNKVLNIEVKHFSNKIDSENEYGLQGSGLLITNPPWGLEEKLKEICEYVEKVSAGLDEGHHHHHH | soluble
MSLMSNDRKVTEIENSPVTEVRPEEHAWYPDDSALAAPPAATPAAISDQLPSDRYLNRELSWLDFNARVLALAADKSMPLLERAKFLAIFASNLDEFYMVRVAGLKRRDEMGLSVRSADGLTPREQLGRIGEQTQQLASRHARVFLDSVLPALGEEGIYIVTWADLDQAERDRLSTYFNEQVFPVLTPLAVDPAHPFPFVSGLSLNLAVTVRQPEDGTQHFARVKVPDNVDRFVELAAREASEEAAGTEGRTALRFLPMEELIAAFLPVLFPGMEIVEHHAFRITRNADFEVEEDRDEDLLQALERELARRRFGSPVRLEIADDMTESMLELLLRELDVHPGDVIEVPGLLDLSSLWQIYAVDRPTLKDRTFVPATHPAFAERETPKSIFATLREGDVLVHHPYDSFSTSVQRFIEQAAADPNVLAIKQTLYRTSGDSPIVRALIDAAEAGKQVVALVEIKARFDEQANIAWARALEQAGVHVAYGLVGLKTHCKTALVVRREGPTIRRYCHVGTGNYNSKTARLYEDVGLLTAAPDIGADLTDLFNSLTGYSRKLSYRNLLVAPHGIRAGIIDRVEREVAAHRAEGAHNGKGRIRLKMNALVDEQVIDALYRASRAGVRIEVVVRGICALRPGAQGISENIIVRSILGRFLEHSRILHFRAIDEFWIGSADMMHRNLDRRVEVMAQVKNPRLTAQLDELFESALDPCTRCWELGPDGQWTASPQEGHSVRDHQESLMERHRSEGHHHHHH | soluble
MSLMSSDQQGKCPVDEETKKLWLREHGNEAHPGATAPGNQLECSANPQDNDKTPEYHTTVDLSQSREVSTIPRTNSDRNWIYPSEKQFYEAMMKKNWDPNSDDMKVVVPLHNSINERVWNYIKSWEDKQGGEACGGIKLTNFKGDSKKLTPRAWFRSRILHLAKPFDRHDWQIDRCGKTVDYVIDFYSTDLNDANSQQQPLIYLDVRPKLNSFEGFRLRFWKSLGFEGHHHHHH | soluble
MSLMTKENNKSAAETEEWKKEYALRDELLKQEKENKKFEKELYQKQNKVRQAENKLKKEKSEYYNVLEDTEKYRMYIGEVGVQGEGVEVTLEDASYIPEGENVNSYIVHESHIFQVVNELYISGAALVAVNGQRLTHDSYIKCNGPVVTVDGVQHPAPFTVSAIGDPDVLLPSLNIAGGLIDQLSMDHISVSAEKEKNVQMKPILKTKEEGHHHHHH | soluble
MSLMYSRKFQILKENIGLYHGDFMDFEVYDTEYMSIIFVKDRLDYTGKEIEPLWAFKTFDIQKDSIVVFRGRMEVTTENMKDLKDIKREKDIKTPIKSEDAINFVVEHFDVIDLKTIYLRQRLLVFIAKEVIESYNIKLKRDGDDLYFEDKKLSVCIACKGTVSAKIHLGINVKSKGAEHVKIIGLEDLGIKDIDKVMREIAINYAKEIDKIERDLRKTLPLIEGHHHHHH | soluble
MSLNAIHRILMTTDGSITAIIEAVTQKKVEVETLEQKIIRADRELAELLEIDEGDEVNYRVVYLRANGEIYAKAISFTPLKRLENSFREDLMRADIPIGKIMRKHNIEARREIRWSRVEEADLALAKELGIADRRVISRNYNIIHRGKVLINITEFFPMERFRIEGYHHHHH | soluble
MSLNAQTLLANVAELVKTKLKPLVDDIDRKGYYPEAFMRELGAIGAVGIEAEGGNGLGLATRIAVLREIGKECGATSFSAWCQAACAWYLHQTPNQAVKDKYLADILQGKVLAGTGMSNTVKHLAGIEKHNLQAECVEGGYTVNGALPWVSNIGEDHIWANTAQIGGGYVMFITGGQREGVSLQNCPEFCALEGTHTFSLNFKDVFIPDEDIIAAPEQFAGYIQSIKAGFILLQIGIGAGVIDGSLGIIRLVNVVNAEVNSYLDDGYDSLKARLDGAWAETERLAGLAWDNTPDNLATLKLREAAAVLALAAAQSAALHSGAKGYLMRSPAQRRVGEAMFVAIVTPAIKHLCKEIAAIEAAKEGHHHHHH | not soluble
MSLNGTSGSVARQLAARRIIGTSWRLFVAYLKWSGVLEVSFKGVEKLNRPGQLILANHPSLLDVVLLVGHVPEMNCIVKKDLQHNPAMSSQIKGAGYIPNEESEAMLETVKAVFDSGQSLLVFPEGTRTGWDGRVKMHRGAVSLGLRYAEVITPVCIKMNPPNFKKGQPWYRIPPKRIRYEITVGDDILPQDWLAEKPLPIAARRLNEYLQDYFTRKTIEGHHHHHH | not soluble
MSLNIHPMWNTYPTLSKELTTTLRLMEQAVQIDNQEIQAAVHDMIHSGGKLLRPAYQLLFSYFGEQRDPKKATALAASIELLHTATLVHDDIVDEADTRRGLPTLRSRFGNSTAVYTGDYLFVCCFKLLSDYSSSLKSIQLNSRSMEKVLTGELGQMDNRYNFEVTIDQYLKNISGKTAELFALSCFVGAYESGTSQRFAKRCGEIGENIGLAFQIIDDILDYTQTADAIGKPVLEDVRQGVYSLPLIYALEANREVLLPLLMKKEALTDEETQEIYRLVHELGGVEKAQELATHYTEKALKEISKLPETKAQAKEQLYEITQTILTREGHHHHHH | soluble
MSLNIISVGVNHKTAPIEIRERIALSEVQNKELVTDLVSSGLASEAMVVSTCNRTELYVVPGMPEVNCDYLKDYIISYKNARNAVRPEHFFSRFYCGTARHLFEVSCAIDSLVLGEGQILGQVKNAYRIAAEVGTAGILLTRLCHTAFSVAKKVKTRTKLMEGAVSVSYAAVELAQKIFSNLSMKKVLLIGAGETGELAAKHMYAKNARNIVITNRTQSKAEALAEELGTNRVLPYESYKEHLHEFDIIITAVSTKEYILNAAEMQQSMAKRRLKPVIILDLGLPRNVDPEVGALQNMFLKDIDALKHIIDKNLERRRAELPKVKAIIDEELVAFGQWLNTLKVRPTIVDLQSKEGHHHHHH | soluble
MSLNILVIGTGAIGSFYGALLAKTGHCVSVVARSDYETVKAKGIRIRSATLGDYTFRPAAVVRSAAELETKPDCTLLCIKVVEGADRVGLLRDAVAPDTGIVLISNGIDIEPEVAAAFPDNEVISGLAFIGVTRTAPGEIWHQAYGRLMLGNYPGGVSERVKTLAAAFEEAGIDGIATENITTARWQKCVWNAAFNPLSVLSGGLDTLDILSTQEGFVRAIMQEIRAVAAANGHPLPEDIVEKNVASTYKMPPYKTSMLVDFEAGQPMETEVILGNAVRAGRRTRVAIPHLESVYALMKLLELRTSKSLWGNEGHHHHHH | soluble
MSLNIVSMAREASSHKNSGKKKAIVKFIIRTLLHYSYIKKMNDNFAHDERKMLFKKQPNFLTKCITPYLRNGLSRQEIIDILVKHYDWFEYKFSTDARHQIYDDVLTLYKLEIDEQDYLINLSFDRNSRKEGELTLTLTDSKYNKYYVLAFTVVDNDIYIGCMQGGANDNGFSKLFTKSIYGLRPKSFMVETLRLLAVNLNINHIYAVKNSAHIYTAKRYGKKSKMIGLDYDRLWKEHNGESHNDYFYVLPIKSERKAMEDIKRPKRKMYRERYAWLDNYDKELKNTLDYICNEGHHHHHH | not soluble
MSLNKIKRITAYKIDLPLKEGSYNWSEGKSVSVFDSTVIAVETENGTIGYGECCPLGPFYLPSYAEGVRAGIKELGPHLIGLDATNLFYLNHIMDRSLKGHPYVKSPIDVACWDIKGKTAGLPVSNLLGGVYDEDFILYRAISQDQPEAMADKVKEYRDQGYRRFQLKVGGNADEDIKRIRSVAEKMETGDKLIADANTGWLTHEAVRVVNGVSDIDVYIEQPCLSYDECFAVRKKTNHPFILDESINNMRTLLKAYHDQAMDAVNIKISKFGGITKAALARDICSELGIAMTIEDTWGGDIVTAAIAHLAHTTDPKLLFTATDFNSYVTVDIASGAPKRENGRMKSSKDPGLGIKPLSEVLGDSVVDIEGHHHHHH | not soluble
MSLNKVITKKQTIPAFFKGNAPYIFAHRGGMALRPEQTQLAFDYAKQLGVDGFETDVRLTKDQQLIVFHDATVDRTTNGSGKVSAHTLAELKKLDAAYHFKDINGLTPYRGHAHTTILTFDELLKQYPDMYINVDLKDAPESYEGSIAPQIMFDTIAENQAFDRVLVTSFYKEQIVRFNKIAQGSVAIGASQQEVTEAFLKYHLLGGRYYQPLAQTFQMPTHFKGIDLTSSRFIKWLNDMNIIPGYYGVNSIDLMNDLYQKGAHTIVTDRPDLAQQFKQTIPNKEGHHHHHH | soluble
MSLNLRESFISKFAASFVKPRFEIWFAAVLIPENDQAFWVRYSTLNPRNNRDLFPMGTLWVSLFDRKNPKNHRTTTQSFPYEEVLIKEHAIEFPEASVGPDHMSGKIQTSMSEDLAWDLEFRHKLEPTGHLPRWLEKTPINHIWGTNRVSELFWTFVPKFDDDPDDWSMEIVTVRPQPFTPTLTFVTLLKRGIPIHQHSIFRSLRSSTKIEYPKLHFKTRLDDYEISVESEMDKDQIAGYIYRDPDGSPRYIEQSDIGNVKCVIRHRRKETVLNAKQAAGVEFHGLRPWRKDHEYLDPYQTEGHHHHHH | not soluble
MSLNLSFAAIDFETATGYMESACAVGIVTVTDGEITDEYYSLIQPPENEYWRANMLVHGITPGMTESLPGFHAIYPEVKKRLQGNVVVAHNEQFDRNVLKNTMRMYGLDYDELSLPERWECTCRIYRSLGYKPVNLSACCEREGIELKHHEALSDARGCAKLYLNFLEKYRPLSTEGHHHHHH | soluble
MSLNMLVINGTPRKHGRTRIAASYIAALYHTDLIDLSEFVLPVFNGEAEQSELLKVQELKQRVTKADAIVLLSPEYHSGMSGALKNALDFLSSEQFKYKPVALLAVAGGGKGGINALNNMRTVMRGVYANVIPKQLVLDPVHIDVENATVAENIKESIKELVEELSMFAKAGNPGVEGGSHHHHHH | soluble
MSLNNHKHARLTRLGRALLVNRVMQQNWTMRQASQAAGVSLRTGYKWLARFRSEGLDGLLDRSSRPHRSPKACAPEQVEHFAQQRRQRLPLWRIAREAGRSLATVARYMERIGLSRLASLEPPAPVRRYERASPGELLHIDTKRLGRIRGVGHRITGDRAQNRNRGIGWDAVHLAIDDFSRVSFARILDDEGGDQCAEFLHQATAYYASLGVRIDRVMTDNGSGYVSRTFRAVCVELGIRHIRTRPYTPKTNGKAERLVQTCLREWAYARPYTSSAERQAALQPFIDRYNWCRPHSALGHQPPITRIPDVNNLLRIDSEGHHHHHH | not soluble
MSLNNKIKPSILPGFMELLPKEQLVFNDIVSKITGVYEQNGFLPMDTPIIEKEEVLLAKSAGETEKQVYRIDNEDRKQVLRFDLTVPFSRFAAQYMSDLTFPFKRYQLGKVYRGERNQKGRYREFYQCDVDVVGNGNLSIKNDAFIINMASKALRKIGLDSYKFQISNRKILTGVLEGLNITNMQEVMILIDKYDKITEEQFLSELNKLIGEEKAKVISKVIKISGSSDEVVENLKKVEIKNEMLEKGIEEVEEVIKYLKLFGVEDSEYAINLKIIRGLDYYTGTVFETLLTGNESYGSICSGGRYDNLAQNYTENVLPGVGMSIGITRLFFVLREIGFIENYNSSLNEKYLIVPIGDTFEYCTKILNKLLVNGKSAEIYFEEGKLKKKLTYANKLDIKYVILIGEDEVTNKELVIKDMITGEQKKLNIEEIEGHHHHHH | soluble
